Experimental data as given in FireProtDB.
Values joined by “and” are separate entries in the source; they are usually repeats but may differ in a detail not shown here. Equal values may be shown once.

Conditions: whole UniProt chain shown; for Tm / heat capacity change of unfolding / unfolding enthalpy (calorimetric) / unfolding enthalpy (van 't Hoff): Thermal
[1] = Saccharomyces cerevisiae (strain ATCC 204508 / S288c), pH 8.5, DSC, Tris 0.05 M, reversible: no
[2] = Saccharomyces cerevisiae (strain ATCC 204508 / S288c), pH 6, Absorbance, Sodium phosphate 100 mM, reversible: yes
[3] = Saccharomyces cerevisiae (strain ATCC 204508 / S288c), pH 6, 20 °C, GdnHCl, Fluorescence, Sodium phosphate 0.1 M, reversible: yes
[4] = Saccharomyces cerevisiae (strain ATCC 204508 / S288c), pH 6, DSC, Sodium phosphate 0.1 M, KCl 0.05 M, reversible: yes (70-80%)
[5] = Saccharomyces cerevisiae (strain ATCC 204508 / S288c), pH 7.2, 20 °C, GdnHCl, Fluorescence, Sodium phosphate 0.1 M
[6] = Rattus norvegicus, pH 7.5, Fluorescence, TEA 50 mM, transition: 3
[7] = Saccharolobus solfataricus (strain ATCC 35092 / DSM 1617 / JCM 11322 / P2), pH 7, DSC, Unknown, reversible: yes

B1: NAD(P)H-dependent FMN reductase LOT6 wild type, Q07923 (protein)
chain: MKVGIIMGSVRAKRVCPEIAAYVKRTIENSEELIDQKLKIQVVDLQQIALPLYEDDDELIPAQIKSVDEYADSKTRSWSRIVNALDIIVFVTPQYNWGYPAALKNAIDRLYHEWHGKPALVVSYGGHGGSKCNDQLQEVLHGLKMNVIGGVAVKIPVGTIPLPEDIVPQLSVHNEEILQLLASCIETTRNK
B1 gave a Tm (Saccharomyces cerevisiae (strain ATCC 204508 / S288c), pH 7.5, CD, Tris-HCl 100 mM, reversible: No) of 60.2 °C.

B2: D-amino-acid oxidase wild type, P80324 (protein)
chain: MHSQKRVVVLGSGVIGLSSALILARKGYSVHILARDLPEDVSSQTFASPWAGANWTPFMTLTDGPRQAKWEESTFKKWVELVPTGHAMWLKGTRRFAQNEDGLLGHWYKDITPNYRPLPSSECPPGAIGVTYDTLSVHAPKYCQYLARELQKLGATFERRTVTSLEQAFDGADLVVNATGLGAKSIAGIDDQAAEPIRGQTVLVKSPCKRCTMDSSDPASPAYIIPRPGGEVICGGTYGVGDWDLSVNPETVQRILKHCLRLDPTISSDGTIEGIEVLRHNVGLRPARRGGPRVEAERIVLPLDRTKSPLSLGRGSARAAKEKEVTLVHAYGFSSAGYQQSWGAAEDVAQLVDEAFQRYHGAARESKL
With B2 the Tm (Rhodotorula toruloides, pH 7.5, CD, Potassium phosphate 50 mM, reversible: No) was 50.2 °C and 48 °C, the Tm (Rhodotorula toruloides, pH 7.5, DSC, Potassium phosphate 50 mM, reversible: No) was 56.9 °C and 55.9 °C and the Tm (Rhodotorula toruloides, pH 7.5, Fluorescence, Potassium phosphate 50 mM, NH4SCN 0.5 M, reversible: No) was 39 °C and 39.7 °C.

B3: Triosephosphate isomerase wild type, P00942 (protein)
chain: MARTFFVGGNFKLNGSKQSIKEIVERLNTASIPENVEVVICPPATYLDYSVSLVKKPQVTVGAQNAYLKASGAFTGENSVDQIKDVGAKWVILGHSERRSYFHEDDKFIADKTKFALGQGVGVILCIGETLEEKKAGKTLDVVERQLNAVLEEVKDWTNVVVAYEPVWAIGTGLAATPEDAQDIHASIRKFLASKLGDKAASELRILYGGSANGSNAVTFKDKADVDGFLVGGASLKPEFVDIINSRN
For B3, the Tm [1] was 59 °C, the “heat capacity change of unfolding” value [1] was 11.7 kcal/mol/K and the “unfolding enthalpy (calorimetric)” value [1] was 318 kcal/mol.

B4: Holocytochrome-c synthase wild type, P06182 (protein)
chain: MGWFWADQKTTGKDIGGAAVSSMSGCPVMHESSSSSPPSSECPVMQGDNDRINPLNNMPELAASKQPGQKMDLPVDRTISSIPKSPDSNEFWEYPSPQQMYNAMVRKGKIGGSGEVAEDAVESMVQVHNFLNEGCWQEVLEWEKPHTDESHVQPKLLKFMGKPGVLSPRARWMHLCGLLFPSHFSQELPFDRHDWIVLRGERKAEQQPPTFKEVRYVLDFYGGPDDENGMPTFHVDVRPALDSLDNAKDRMTRFLDRMISGPSSSSSAP
With B4 the Tm [2] was 46.5 °C, the “heat capacity change of unfolding” value [2] was 2 kcal/mol/K and the “unfolding enthalpy (van 't Hoff)” value [2] was 79 kcal/mol.

B5: Cytochrome c mitochondrial import factor CYC2 wild type, P38909 (protein)
chain: MLWKNYVLSSSRITRRLHKSPRKSSFSKNFFITGCLLTVGAVSSYLTYRYTSERENKHELSPSYFVKYKISHKRDIDSSHFLLEVTPLFKQKVNIWSLMTAENLWSVEIKQPEVMVVRNYTPLPLKFNPASKEIEILKDGDNADGKLSFYIKKYENGEVARWLHHLPKGHIIEIRGPFIDYEFPHLPNELKRSRDCLYMDNRNERGNNVRENSQFIYQPYDIMMFTAGTGIVTALQLLLTESPFRGTIKLFHTDKNIKQLGPLYPILLRLQASNRVQLKIFETDRQTKQDVLKSIQKSITKPYPYKGLLPFSNVNNKNIMPVLALVCGPESYISSISGRKYDLNQGPVGGLLSKEGWNSDNVYKLS
In the case of B5, the unfolding free energy (Saccharomyces cerevisiae (strain ATCC 204508 / S288c), pH 6, 20 °C, GdnHCl, DSC, Sodium phosphate 0.1 M, reversible: yes) is reported as 4.2 kcal/mol, the denaturant m value [3] is reported as 3.2 kcal/mol/M and the “denaturant midpoint (higher = more stable)” value [3] is reported as 1.5 M. It also gave an unfolding free energy [3] of 4.9 kcal/mol, an unfolding free energy (Saccharomyces cerevisiae (strain ATCC 204508 / S288c), pH 6, 20 °C, GdnHCl, Fluorescence, Sodium phosphate 0.1 M) of 3.8 kcal/mol and a Tm [4] of 79.4 °C. For the same protein, the “unfolding enthalpy (calorimetric)” value [4] was 113 kcal/mol, the “unfolding enthalpy (van 't Hoff)” value [4] was 140 kcal/mol and the “denaturant midpoint (higher = more stable)” value [5] was 1.49 M. For the same protein, the unfolding free energy [5] was 3.8 kcal/mol.

B6: T-cell surface antigen CD2 wild type, P08921 (protein)
chain: MRCKFLGSFFLLFSLSSKGADCRDSGTVWGALGHGINLNIPNFQMTDDIDEVRWERGSTLVAEFKRKMKPFLKSGAFEILANGDLKIKNLTRDDSGTYNVTVYSTNGTRILNKALDLRILEMVSKPMIYWECSNATLTCEVLEGTDVELKLYQGKEHLRSLRQKTMSYQWTNLRAPFKCKAVNRVSQESEMEVVNCPEKGLPLYLIVGVSAGGLLLVFFGALFIFCICKRKKRNRRRKGEELEIKASRMSTVERGPKPHSTQASAPASQNPVASQAPPPPGHHLQTPGHRPLPPSHRNREHQPKKRPPPSGTQVHQQKGPPLPRPRVQPKPPCGSGDVSLPPPN
For B6, the Tm [6] was 24.9 °C, the “heat capacity change of unfolding” value [6] was 0.5 kcal/mol/K and 0.98 kcal/mol/K and the “unfolding enthalpy (van 't Hoff)” value [6] was 14.5 kcal/mol.

B7: DNA-binding protein 7d wild type, P39476 (protein)
chain: MATVKFKYKGEEKEVDISKIKKVWRVGKMISFTYDEGGGKTGRGAVSEKDAPKELLQMLEKQKK
With B7 the Tm (Saccharolobus solfataricus (strain ATCC 35092 / DSM 1617 / JCM 11322 / P2), pH 4.5, NMR, Unknown) was 60.9 °C, the unfolding free energy (Saccharolobus solfataricus (strain ATCC 35092 / DSM 1617 / JCM 11322 / P2), pH 6.1, 25 °C, GdnHCl, Fluorescence, MES 50 mM, NaCl 100 mM) was 5.93 kcal/mol and the Tm [7] was 99 °C. For the same protein, the “heat capacity change of unfolding” value [7] was 0.75 kcal/mol/K and the “unfolding enthalpy (calorimetric)” value [7] was 65 kcal/mol.
